Experimental findings from patent US20230265148A1 are described below.

Values joined by “and” are separate entries in the source; they are usually repeats but may differ in a detail not shown here. Equal values may be shown once.

The target of this test is human IL-2 receptor αβγ trimer on CHO-K1 cells (CHO-K1 hIL-2R αβγ 2D6) (human) (UniProt P01589). The test can be described thus: FACS on CHO-K1 hIL-2R αβγ 2D6 cells.
Sequence of UniProt P01589 (P01589 22-272 limits assumed, chain 1 of 3): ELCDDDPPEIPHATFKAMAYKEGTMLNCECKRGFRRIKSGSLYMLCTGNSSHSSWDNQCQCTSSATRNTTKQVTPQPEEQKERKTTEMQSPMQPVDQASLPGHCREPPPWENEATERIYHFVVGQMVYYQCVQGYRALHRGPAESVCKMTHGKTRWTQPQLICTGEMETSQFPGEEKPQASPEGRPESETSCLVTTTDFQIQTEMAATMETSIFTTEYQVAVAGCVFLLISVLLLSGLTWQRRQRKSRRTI
Sequence of UniProt P01589 (chain, as listed by the source limits assumed, chain 2 of 3): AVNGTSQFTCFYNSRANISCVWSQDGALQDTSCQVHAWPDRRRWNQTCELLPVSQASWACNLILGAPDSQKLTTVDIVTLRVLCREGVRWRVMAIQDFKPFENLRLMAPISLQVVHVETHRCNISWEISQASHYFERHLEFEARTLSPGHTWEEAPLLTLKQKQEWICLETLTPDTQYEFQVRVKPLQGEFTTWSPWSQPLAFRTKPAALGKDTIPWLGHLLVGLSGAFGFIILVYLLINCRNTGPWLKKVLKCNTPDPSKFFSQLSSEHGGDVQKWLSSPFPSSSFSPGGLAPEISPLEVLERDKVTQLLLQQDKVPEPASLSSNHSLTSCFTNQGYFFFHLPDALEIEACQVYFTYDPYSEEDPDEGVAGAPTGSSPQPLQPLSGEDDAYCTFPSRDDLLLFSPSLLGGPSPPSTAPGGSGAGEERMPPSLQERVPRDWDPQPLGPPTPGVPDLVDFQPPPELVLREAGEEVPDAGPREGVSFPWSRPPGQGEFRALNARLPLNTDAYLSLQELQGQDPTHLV
Sequence of UniProt P01589 (chain, as listed by the source limits assumed, chain 3 of 3): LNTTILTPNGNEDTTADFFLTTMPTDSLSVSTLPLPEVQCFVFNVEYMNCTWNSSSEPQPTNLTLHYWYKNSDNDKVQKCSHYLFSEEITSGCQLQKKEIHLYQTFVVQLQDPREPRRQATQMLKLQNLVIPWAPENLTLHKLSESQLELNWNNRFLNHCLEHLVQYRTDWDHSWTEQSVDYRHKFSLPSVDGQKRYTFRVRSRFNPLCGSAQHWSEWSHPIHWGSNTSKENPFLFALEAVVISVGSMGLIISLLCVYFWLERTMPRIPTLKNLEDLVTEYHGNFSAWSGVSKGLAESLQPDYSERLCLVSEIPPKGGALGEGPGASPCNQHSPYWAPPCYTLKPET

Regarding Human IgG control (antibody), the MFI at 0.0003 nM was 146 MFI; the MFI at 0.0017 nM was 120 MFI and 140 MFI; the MFI at 0.0085 nM is 119 MFI and 145 MFI; the MFI at 0.0427 nM is 274 MFI and 144 MFI. For the same substance, the MFI at 0.2133 nM is 181 MFI and 139 MFI; the MFI at 1.0667 nM was 157 MFI and 138 MFI; the MFI at 5.3333 nM is 124 MFI and 136 MFI; the MFI at 26.667 nM was 118 MFI and 187 MFI.
